The values that follow come from the domain aggregation screens of Martell et al. (2025).

The nature of this series: soluble fraction after stress (log2 fold change); higher = more stays soluble; pooled small domains, quantitative proteomics. Conditions: stress: 75 degC.
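Also: 20 min heating vs room temperature control held 20 min.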

Consider “HMDGLTEQQADDILAFISIKGTNAEVLAALENYAGRNETFDTGLSELKVVASNLAAFGMPEENFVVDL”, for which the “soluble fraction (log2)” value was 0.283.

Turning to “HMDGPGDRLLIAIQENSMTQKKFAQLIGMSPNGLNSIIKGKKRLSRVLAIATERLTGVRADWILQNEQPK”, the “soluble fraction (log2)” value was -0.0913.

On to “HMDGQPLSERQQEILRWVAEGLSNREIGERLNITPNTVRDHLSEVMRRLEVSNRTSAVSTAFHLGLLP”, for which the “soluble fraction (log2)” value was -0.0654.

Take “HMDGRIRFRHAALHDPDVAARLHDYLTTSLPGVRSARVNSQTGSLLLEYDPEVLDRSTLLDLAARAESLL”: the “soluble fraction (log2)” value is -0.493.

For “HMDGRSLSHATLEEIRIRAVQRVEAGESPEVVVKALGFSRPRIYEWLALYREGGLEALRAKPV”, the “soluble fraction (log2)” value was -1.1.

As to “HMDGSEYAGTVRLGDGTLQPVPRFETSNSETPKYLYLVMDVTHDPPVYILEHESAELKSVLGGLVLIGSYS”, the “soluble fraction (log2)” value came out at 0.0157.

For the sequence “HMDGTVRGKTTFQELLDWGVPQERIEAVLGGPIPAPGVVIKDYVTAQGKEFSAVRDALQAEVDAVLK”, the “soluble fraction (log2)” value is 0.144.

For “HMDGVLLDHLDGFVTTRRGVEAWLEQPTSFNKPSILLVAADGESTRRAIPSIAFGYDFASRHDIPAYDAG”, the “soluble fraction (log2)” value is -0.44.

In the case of “HMDGVPPAGSRIRLTVSTQVGDKEFEGTLVPPAGVDLLTLKLANGYNLSHSIADVREVVLIEEGLQGEEP”, the “soluble fraction (log2)” value is -0.191.

Consider “HMDGVSLLFKLMETLPEQQKTILHLRDVEQLEFAEIAKITNTSQANVRVALSRARKKIKDLLLKQY”, for which the “soluble fraction (log2)” value was -2.52.

Turning to “HMDGVYLKSLKQTEQHIHWSGYAQSNAWVSTLMRNLDASPWFESPLLIEIKAATINNSRSNEFDLNVRL”, the “soluble fraction (log2)” value amounted to 0.0974.

As for “HMDGYTVYTNWGSDTNVARSDQQIQSQIPQLSGATIVGVWTKPIATGGTSYKIRYRTNSGAFTEIDVDQ”, the “soluble fraction (log2)” value was -0.256.

As to “HMDHKTKLQEVLQKSGDVFIEYRLIKEEGPAHERIFWIEVYVDDQLIGTGQGKSKKLAEQAAAENALAALE”, the “soluble fraction (log2)” value is -1.21.

With “HMDIEHREMKLQKLVITADSPLVGKTLKESNVRQRYNFMVVGVEEGQKNLTMINPNRRFEVGDIVWVVGEE”, the “soluble fraction (log2)” value is -0.743.

“HMDIFGREAEVEQILQEVRFGDDPHYRLSIGILPVTGHAGAGKTALVRFIFHHEVARAEFTVRMWVHV”: the “soluble fraction (log2)” value amounted to 0.154.

As to “HMDIGKNIQTIRYANKLTQDQVIAKLNLMGISMSKSTYAKLETNRMNIKVSELVALAKIFHTDINAF”, the “soluble fraction (log2)” value is -2.62.

“HMDIGTYTVTASALNIRQYPTASSAKTGSYPNGSIVTIYEYLTDGSWGRTDDGWISMNYVSRRY”: the “soluble fraction (log2)” value was -1.93.

With “HMDIHSEEYILGQNIRKYRLRLGWSQADLSNAVDIDRADISKYENGAKGIMSSTLLRKFAKALGVSMDALM”, the “soluble fraction (log2)” value was -3.32.

As to “HMDILPRMVASEMRAVGVPPERMTREEKGTVIRNLMNAGIHQMKGAVVEIARQLHLSEPTVYRYIKREKG”, the “soluble fraction (log2)” value is -0.664.

For “HMDINMELGKNIRRLRKLNNLTQQSLANQMNRSKTLIALWEKGERDPSSIDLKRLSEIFNVRADDIIG”, the “soluble fraction (log2)” value was -0.799.

As for “HMDIRMLLSDREEEIMILLSKGLSISEAANRMQIGQASAATYLNRARRKLKAETVRQAVAIWTGD”, the “soluble fraction (log2)” value was -1.87.

On to “HMDISAFDTEFIISKFGGIRPMAQKLGVPVSTVQGWKQRQTIPQNRMGDILEAAKNYNLELTP”, for which the “soluble fraction (log2)” value is -0.112.

“HMDISPAAKQRLALIQPLLEKNAEAITDRKLRNAVAKDIANNQNTTVRRVLRLYYRYLATGQVM”: the “soluble fraction (log2)” value was 0.192.

In the case of “HMDIVIPIQVKNVSSGEVLDFPSIRAAARDLKFPKTTISLGVRYAGEKAYKGFVMRYRSDDPWPIVQES”, the “soluble fraction (log2)” value is -2.

As for “HMDIYLDEVNRKILHLLSQGIKTRSLREYINLSMSAIEKRKKHMKELFLVEDGKDETLLNEARNKGF”, the “soluble fraction (log2)” value is -1.88.

“HMDIYLTAFKTTSNQVTLNGIARSDLIISEFMRDIRDAKLFGEPVLQVIQNKNLNNVQARVFELVVPL”: the “soluble fraction (log2)” value was 0.115.

As to “HMDKATMRWEQIEKFLETHPYIMNADVRALFNVSAATANRILATLTTEGKLVKYREGGHWAYKY”, the “soluble fraction (log2)” value was -1.1.

As for “HMDKELILLWDRVKSKVWQMDIQDSQVANWFQRNYHLTVRLRDFDPPVPPDKFTAEQLASFIKDIERHT”, the “soluble fraction (log2)” value was -2.41.

“HMDKGMQTMIDNLHKNTGKTLEEWIALVNRANFAKHGEVISFLKEKHGLTHGYANLVAHRLK”: the “soluble fraction (log2)” value amounted to 0.863.

In the case of “HMDKINQEAIEDEAGLWLAKIDGRQLAQEEVRELIAWMRRSDFHREYLITLARQWDGMAALNKLATLFP”, the “soluble fraction (log2)” value was -2.08.

As to “HMDKLFNRQTLGGVELTQKQIEDLNAGKAIFVEGMQRKDGEVFSSYVKLDEATGRPSYTRYNPDSP”, the “soluble fraction (log2)” value was 0.933.

As for “HMDKLSYALGLSMGHNFLGSGIKSLNVEDFAKGVEAVYKQEKPEISFDEAKKIINEFFSNLQDEIAE”, the “soluble fraction (log2)” value is -1.01.

Take “HMDKNLQYADTPKGKLREYIKNLPNGSTVNRQKLAEEFGIKKQSMGTVTEVFQEFPDKNFKFVNP”: the “soluble fraction (log2)” value was -0.0476.

For the sequence “HMDKPVIEDVSFDDLAYMVGERVIIRTHLRSTRDGELKSFNRAGILVSLRNRPGMELEIPRSTVASAQVVW”, the “soluble fraction (log2)” value was -2.39.

In the case of “HMDKQEKIHKKKIIILEALKRLLQNDVYSRITVQAVADEAGFSKGGLLHYFPTKEEMYIEFMEY”, the “soluble fraction (log2)” value is -0.103.

For the sequence “HMDKRYYYRILGLVGEPTRDQIEAAYETRIAKLRSSDYGDDPLYARRKISEVTMAYKVLTGS”, the “soluble fraction (log2)” value was -1.56.

On to “HMDKSFLQSLHLIALGIVKNQMDPWELVNGWVEYYLKNKDKYIDHPNLKAVAVLKMKGLFIDHFRKS”, for which the “soluble fraction (log2)” value was -5.84.

Regarding “HMDKSHYEELGVSRTATHAEIRRAYRHLMRTLHPDSNDGRVDAVRITKVNEAWNVLSQSSSRNAYDKSQV”, the “soluble fraction (log2)” value was -0.235.

With “HMDKTTIKNEQKKQILIFAEMNLFFKAKDVAELLGLQASRARYLLQELVKDGKIQGIGNNKGRKYQLI”, the “soluble fraction (log2)” value was -0.729.

“HMDKVEQLMQNPVIQEKMSEGDRELLRNASLVVLGRLEDDGSIIQRFVELFGEEAYERLKSELM”: the “soluble fraction (log2)” value is -0.0149.

As for “HMDLDIGSVLQASRGEKKISLRQLAERTGLTASMLSQIERNLVNPSINTLKVIAAALEIPMYKFFMG”, the “soluble fraction (log2)” value was -1.17.

On to “HMDLEMLEVEDTIKDLLSQHQKINAIKYYRNYMSEQLNVDMGLRQAKDTIDAIGRGATVDLSVGY”, for which the “soluble fraction (log2)” value is -0.0747.

For the sequence “HMDLIEVLAQDTIKKIYNTYVAYKNKVDVFYVAFSGGKDSIVTLDLVQRTLPHNEFKVLFGDTGM”, the “soluble fraction (log2)” value amounted to 0.243.

On to “HMDLIFQKGDLVFSTEHNQRGIFYEYLEQGQAKISIEKQFFVVAARRLQLLTKREVLYPAGYDLDQLFV”, for which the “soluble fraction (log2)” value is -2.21.

For the sequence “HMDLKENQHILQISNKGVQMGNVLKDLIIQTLNITNGNQIKAAKLLAISRAKLRYRIEQLGINISGKNI”, the “soluble fraction (log2)” value is 0.000197.

Regarding “HMDLKHNQITMRELLRNKQAYLLLYKEFPMFMTPAILQNIRPLTLQQIIQMVRPYISRPKLNMLLEQLENI”, the “soluble fraction (log2)” value came out at 0.164.

With “HMDLMQRVIIVRPVMQGDYLTRAHLGLQTLSRNGGGGFTDIDDLVGRRAKKSLRAGLVVHNRHL”, the “soluble fraction (log2)” value was -0.813.

“HMDLPAEFSKPELETLFKRGKQSGELSLTEVRDALEAAQLPNKKTQTKVLKVLSDNAIHVLMDG”: the “soluble fraction (log2)” value stood at 0.0744.

In the case of “HMDLPDFTSRERDILARVVQGDSNERIAASLGVSVSTVKTHIGNILRKTGQTNRVRLIVWATRHL”, the “soluble fraction (log2)” value was -2.58.

As for “HMDLPDYYFRVRENGAVVFRVGTENRQRRIEMVEIATVNVKNGNIKPHGEVDLTKADRLAIGEWLAARQAQ”, the “soluble fraction (log2)” value was -1.54.
